# Experimental data reported in patent US20050221391A1, “Reagents and methods for identification of binding agents” (priority 2000, published 2005).
# pKd: −log10 of the molar value. “Also recorded” adds a separate entry of the source.
# What was measured:
# [1] = molecular target: tau peptide incorporating the phosphorylated threonine 231 site (tau231P), Biotin-KKVAVVR(phospho)TPPKSPSS; test: estimated from other studies, method not described
# [2] = test system: non-phosphorylated tau and APP peptides; test: Binding to the respective non-phosphorylated tau and APP peptides
# [3] = molecular target: tau231P (tau peptide phosphorylated at threonine 231) (Homo sapiens, UniProt P10636); test: ELISA binding to immobilized biotinylated tau231P phosphopeptide; details: synthetic phosphopeptide
# Experimental: To identify compounds which bind to tau peptides phosphorylated on threonine 231, a 96 well or […] ELISA plate is coated with Neuravidin in 20 mM K2HPO4/10 mM KH2PO4, 1 mM EDTA, 0.8% NaCl, 0.01% NAN3, pH 7.2, using a protein concentration of 5 micrograms per ml. All volumes in ELISA plates are 50 microliters, except for storage, where 200 microliters is added. After coating, plates are incubated with 10 mM tris base, 150 mM NaCl, pH 7.4 CIBS) containing 2% bovine serum albumin (BSA) and stored at 4 °C. Plates prepared this way are stable for several weeks.
# A peptide derived from the protein tau was utilized, as shown below: • Biotin-KKVAVR(phospho)TPPKSPSS (SEQ D NO. 1) The peptide was diluted to a concentration of 0.5 micromolar in TBS containing 2% BSA, and 50 microliters per well were added followed by incubation at room temperature for one hour. Unbound peptide is washed off with TBS containing 0.5% Tween 20. […] Bound antibody is detected by incubation with a solution of goat anti-mouse Ig or goat anti-rabbit Ig coupled to horse radish peroxidase (HRP) (2 micrograms per ml in TBS containing 1% BSA) for one hour, and excess antibody is removed by washing with TBS containing 0.05% Tween 20. HRP activity is determined by addition of a substrate capable of generating a colored or fluorescent product (i.e., ABTS Substrate solution (BioRad Laboratories, Hercules, Calif.)). […]
# [4] = molecular target: APP668P (APP peptide phosphorylated at threonine 668) (Homo sapiens, UniProt P05067); test: ELISA binding to immobilized biotinylated APP668P phosphopeptide; details: synthetic phosphopeptide
# From the text: It is also possible to practice the method described above using a phosphopeptide corresponding to the sequence of APP. The sequence of one such peptide is shown below: • Biotin-VEVDAAV(phospho)TPEERHLS (SEQ ID NO. 2) In place of the TG3 antibody, a mAb specific for the phosphothreonine 668 of APP is used. The same antibody detection reagents and methods are used as described above. Examples of antibodies useful in this regard include but are not limited to GF1, GF3, GF5, GF7, GF12, GF25, and GF31. Polyclonal antibodies reactive against substantially similar phosphopeptides may also be useful.
# Assays have been established in which the tau and APP phosphopeptides are biotinylated and immobilized on Neutravidin-coated 96 well ELISA plates. […] Concentrations of GF31 in the 5 nM range give a robust signal on such plates, and the binding is very sensitive to the presence of an antibody, TG3, which has a high affinity for the tau peptide (FIG. 5B). Duplicate assays are shown in FIG. 5B, illustrating the reproducibility of the assay.
Substance,pKd [1],binding to the respective non-phosphorylated peptides [2],binding / recognition of tau231P phosphopeptide [3],binding / recognition of APP668P phosphopeptide [4]
monoclonal antibody TG3,7.60,,,
Pin1: prolyl isomerase which binds phosphorylated serine/threonine-proline bonds in proteins,,does not bind,high affinity; also recorded: binds,high affinity; also recorded: binds
